Article PMC7205207, “Modeling and mitigation of high-concentration antibody viscosity through structure-based computer-aided protein design” (PLoS ONE, 2020)
Substitutions are numbered along the chain they refer to. In names and notes the source's numbering stands.

B1: R2-014 (antibody, V domains shown)
VH: EVQLLQSGGGLVKPGGSLRLSCAASGFTFSSYAMSWVRQAPGKGLEWVSYISDQGSLKYYADSVKGRFTISRDNSKNTLYLQMNSLRAEDTAVYYCARHPYWYGGQLDLWGQGTLVTVSS
VL: SYVLTQPPSVSVAPGKTARITCSGDSLGSYFVHWYQQKPGQSPVLVIYDDSKRPSGIPERFSGSNSGNTATLTISGTQAMDEADYYCSAFTHNSDVFGGGTKLTVL
notes: as the VH of m20 (R2-001_HC) with D53Q; as the VL of m20 (R2-001_LC); only the variable regions are written; source: HEK293, transient, purified from conditioned medium (protein A, TMAE, HIC)
B2: R2-004 (antibody, V domains shown)
VH: B1 VH with Q54D
VL: B1 VL with Y48H
notes: as the VH of m20 (R2-001_HC); as the VL of m20 (R2-001_LC) with Y49H (Kabat); only the variable regions are written; source: HEK293, transient, purified from conditioned medium (protein A, TMAE, HIC)
B3: R2-006 (antibody, V domains shown)
VH: B1 VH with Q54D
VL: B1 VL with S51K
notes: as the VH of m20 (R2-001_HC); as the VL of m20 (R2-001_LC) with S52K (Kabat); only the variable regions are written; source: HEK293, transient, purified from conditioned medium (protein A, TMAE, HIC)
B4: R1-008 (antibody, V domains shown)
VH: B1 VH with Q6E, K13Q, Q54D, R98K
VL: B1 VL with A13S, K16Q, R19S, K52N
notes: VH of AB-001 (AB-001_HC); Kabat position; only the variable regions are written; source: HEK293, transient, purified from conditioned medium (protein A, TMAE, HIC)
B5: R1-015 (antibody, V domains shown)
VH: B1 VH with Q54D
VL: B1 VL with V3E, A13S, K16Q, R19S, K52N, D95N
notes: only the variable regions are written; source: HEK293, transient, purified from conditioned medium (protein A, TMAE, HIC)
B6: R2-016 (antibody, V domains shown)
VH: B1 VH with Q54D, D108N
VL: B1 VL
notes: as the VH of m20 (R2-001_HC) with D101N; as the VL of m20 (R2-001_LC); only the variable regions are written; source: HEK293, transient, purified from conditioned medium (protein A, TMAE, HIC)
B7: R1-018 (antibody, V domains shown)
VH: B1 VH with Q6E, K13Q, Q54D, Q106R
VL: B1 VL with V3E, A13S, K16Q, T17R, R19S, K52N
notes: as for B5
B8: R1-003 (antibody, V domains shown)
VH: B1 VH with Q6E, Q54D
VL: B1 VL with V3E, A13S, K16Q, R19S, K52N
notes: VL of AB-001 (AB-001_LC); only the variable regions are written; source: HEK293, transient, purified from conditioned medium (protein A, TMAE, HIC)
B9: R1-016 (antibody, V domains shown)
VH: B1 VH with Q54D
VL: B1 VL with V3E, A13S, K16Q, R19S
notes: as for B5
B10: R2-017 (antibody, V domains shown)
VH: B1 VH with Q54D, D108Y
VL: B1 VL
notes: as the VH of m20 (R2-001_HC) with D101Y; as the VL of m20 (R2-001_LC); only the variable regions are written; source: HEK293, transient, purified from conditioned medium (protein A, TMAE, HIC)
B11: R1-011 (antibody, V domains shown)
VH: B1 VH with Q6E, K13Q, Q54D, R98K
VL: B1 VL with V3E, A13S, K16Q, R19S, K52N, D95N
notes: VH of AB-001 (AB-001_HC); only the variable regions are written; source: HEK293, transient, purified from conditioned medium (protein A, TMAE, HIC)
B12: R1-002 (antibody, V domains shown)
VH: B1 VH with K13Q, Q54D
VL: B1 VL with V3E, A13S, K16Q, R19S, K52N
notes: as for B8
B13: R2-011 (antibody, V domains shown)
VH: B1 VH with Q54D, Q106K
VL: B1 VL
notes: as the VH of m20 (R2-001_HC) with Q100bK; as the VL of m20 (R2-001_LC); only the variable regions are written; source: HEK293, transient, purified from conditioned medium (protein A, TMAE, HIC)
B14: R2-009 (antibody, V domains shown)
VH: B1 VH with Q54D
VL: B1 VL with G67K
notes: as the VH of m20 (R2-001_HC); as the VL of m20 (R2-001_LC) with G68K (Kabat); only the variable regions are written; source: HEK293, transient, purified from conditioned medium (protein A, TMAE, HIC)
B15: R2-018 (antibody, V domains shown)
VH: B1 VH with Q54D
VL: B1 VL with D25N
notes: as the VH of m20 (R2-001_HC); as the VL of m20 (R2-001_LC) with D26N (Kabat); only the variable regions are written; source: HEK293, transient, purified from conditioned medium (protein A, TMAE, HIC)
B16: R1-010 (antibody, V domains shown)
VH: B1 VH with Q6E, K13Q, Q54D, R98K
VL: B1 VL with V3E, A13S, K16Q, R19S
notes: as for B11
B17: R2-020 (antibody, V domains shown)
VH: B1 VH with Q54D
VL: B1 VL with D50N
notes: as the VH of m20 (R2-001_HC); as the VL of m20 (R2-001_LC) with D51N (Kabat); only the variable regions are written; source: HEK293, transient, purified from conditioned medium (protein A, TMAE, HIC)
B18: R2-007 (antibody, V domains shown)
VH: B1 VH with Q54D
VL: B1 VL with S64K
notes: as the VH of m20 (R2-001_HC); as the VL of m20 (R2-001_LC) with S65K (Kabat); only the variable regions are written; source: HEK293, transient, purified from conditioned medium (protein A, TMAE, HIC)

How the values were obtained:
[1] = molecular target: T1, human PDGF-BB (platelet derived growth factor B homodimer) (human, UniProt P01127); experiment: SPR; Biacore T200, off-rate screen; antibody captured (~70 to 100 RU) by anti-human IgG amine-coupled to a CM5 chip; human PDGF-BB injected at a single 2.5 nM for 170 s, dissociation 300 s; HBS-EP+ N (10 mM HEPES, 500 mM NaCl, 3 mM EDTA, 0.05% Tween20, pH 7.4); 25 C; details: both partners purified
T1 construct: Platelet derived growth factor B, human, homodimer, bought from PeproTech; the printed catalogue number may stand for 100-14B; source: bought: PeproTech, Catalog 100-148
T1 sequence (P01127 82-190): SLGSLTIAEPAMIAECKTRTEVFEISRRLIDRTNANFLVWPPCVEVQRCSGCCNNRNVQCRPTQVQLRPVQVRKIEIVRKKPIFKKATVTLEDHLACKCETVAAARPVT

[2] = AC-SINS; self-association assay, as in Avery et al. [35]; score = smoothed max absorbance of the antibody sample minus that of the average blank (PBS); scores >=11 considered high; details: other: AC-SINS
[3] = molecular target: T1, human PDGF-BB (platelet derived growth …); experiment: SPR; Biacore T200, full kinetics; antibody captured by anti-human IgG on a CM5 chip; human PDGF-BB at 20, 10, 5, 2.5 and 1.25 nM, 50 s injection; HBS-EP+ N; 25 C; 1:1 Langmuir fit; details: both partners purified
[4] = molecular target: T1, human PDGF-BB (platelet derived growth …); experiment: as above; details: both partners purified; remark: listed apart in the source

Binder	koff [1] [s⁻¹]	further results
B1	0.000396	
B2	0.000439	
B3	0.000366	AC-SINS Score [2]: 25; Kd [3]: 0.103 nM; Kd [4]: 0.0888 ± 0.0295 nM; koff [4]: 0.000336 s⁻¹; kon [4]: 3.97e+06 M⁻¹ s⁻¹
B4	0.000533	
B5	0.000752	
B6	0.000266	
B7	0.000419	
B8	0.000443	
B9	0.000289	AC-SINS Score [2]: 24; Kd [4]: 0.0743 ± 0.0137 nM; koff [4]: 0.000357 s⁻¹; kon [4]: 4.88e+06 M⁻¹ s⁻¹
B10	0.000673	
B11	0.00086	
B12	0.00038	
B13	0.000414	
B14	0.000265	
B15	0.000386	
B16	0.000372	
B17	0.000386	AC-SINS Score [2]: 4; Kd [4]: 0.299 ± 0.00683 nM; koff [4]: 0.00061 s⁻¹; kon [4]: 2.04e+06 M⁻¹ s⁻¹
B18	0.000401	
